According to patent US11407825B2, “NaPi2b-targeted polymer antibody-drug conjugates and methods of use thereof” (Mersana Therapeutics, Inc., priority 2018, dated 2022):

Test: Phase 1b dose escalation study of XMT-1536: safety and tolerability (adverse events, DLT)
Assay type: in vivo, human
Source text: The study presented herein is an open label, multi-center Phase 1b study of XMT-1536 administered as an intravenous infusion once every three or four weeks. The dose escalation (DES) part of the study will establish the maximum tolerated dose (MTD) or recommended Phase 2 dose (RP2D) for XMT-1536 in patients with a number of tumor types likely to express NaPi2b, with a focus on patients with platinum-resistant ovarian cancer and non-squamous non-small cell lung cancer (NSCLC). […] The RP2D may differ from the MTD and may take into account tolerability, pharmacokinetic and pharmacodynamic measures, and efficacy of XMT-1536 based on RECIST 1.1. After the first cycle, patients may continue to receive XMT-1536 until disease progression provided the drug is well-tolerated and patients continue to derive clinical benefit in the opinion of the Investigator. The DES segment of the study utilized an accelerated titration design. The first 3-week cycle of treatment constitutes the dose limiting toxicity (DLT) evaluation period. For the first two dose levels, a minimum of 1 patient was treated at each dose level. If this patient experiences a treatment-emergent adverse event of Grade 2 or higher, 2 additional patients will be added at this dose level, and the study will subsequently follow a 3+3 design, as described below. […] Starting with Dose Level 3, the study will follow a standard 3+3 design, with 3 patients enrolled initially at each dose level. […] However, in the event of 1 DLT, 3 additional patients will be enrolled at the same dose level. Any dose level with 2 or more DLTs will be considered to exceed the MTD and subsequent patients will be enrolled at lower dose level(s). After the first cycle, patients may continue to receive XMT-1536 until disease progression if the drug is well-tolerated and patients continue to derive clinical benefit in the opinion of the Investigator.
After an August 2018 protocol amendment, each cycle will be 4-week (28 day) dose cycle. The first two, 4-week cycles of treatment (56 days) constitutes the dose limiting toxicity (DLT) evaluation period. Beginning with this amendment, up to 10 patients will be enrolled for evaluation at 20.0 mg/m^2 under the new 4-week cycle dose regimen. If that dose is cleared by the SRC, subsequent dose groups will follow a modified 3+3 design. Three patients will be enrolled initially and if toxicity issues arise, the SRC will review all pertinent data and may decide to add more patients to fully evaluate a dose in question and/or lower the dose. […] The observation period for DLTs is 56 days, between Day 1 through the end of Cycle 2 which includes the pre-dose assessments before receiving the Cycle 3 dose. A maximum of ten patients will be enrolled per dose level prior to the SRM. that will be conducted no later than 5 days after at least the sixth patient dosed in each level has completed Cycle 2, Day 28 evaluations. The data available for the patients dosed in all prior will be factored into the data review for each applicable dose escalation SRM. Any dose level with 2 or more DLTs occurring in 6 or fewer treated patients will be considered to exceed the MTD and subsequent patients will be enrolled at lower dose level(s). After the second cycle, patients may continue to receive XMT-1536 until disease progression if the drug is well-tolerated and patients continue to derive clinical benefit in the opinion of the Investigator. After completion of DES, the EXP segment of the study will be opened.
All adverse events will be graded according to the National Cancer Institute (NCI) Common Terminology Criteria version (CTCAE v4.03). The observation period for DLTs is 56 days, between Day 1 through end of Cycle 2 which includes the pre-dose assessments before receiving the Cycle 3 dose. […]

B1: XMT-1536: about 10-15 molecules of auristatin F-hydroxypropyl amide conjugated to a cysteine moiety of NaPi2b monoclonal antibody XMT-1535 via a PHF scaffold (conjugate, chains of the INN, looked up)
VH: QVQLVQSGAEVVKPGASVKMSCKASGYTFTGYNIHWVKQAPGQGLEWIGAIYPGNGDTSYKQKFRGRATLTADTSTSTVYMELSSLRSEDSAVYYCARGETARATFAYWGQGTLVTVSS
VL: DIQMTQSPSSLSASVGDRVTITCSASQDIGNFLNWYQQKPGKTVKVLIYYTSSLYSGVPSRFSGSGSGTDYTLTISSLQPEDFATYYCQQYSKLPLTFGQGTKLELK
modifications: auristatin F-hydroxypropyl amide via PHF scaffold
notes: about 10-15 molecules of auristatin F-hydroxypropyl amide conjugated to a cysteine moiety of NaPi2b monoclonal antibody XMT-1535 via a PHF scaffold
30 mg/m^2, 28-day cycle, as of August 2019
  number of DLT: One
30 mg/m^2, 28-day cycle, as of February 2019
  number of DLT: one
36 mg/m^2, 28-day cycle, as of August 2019
  number of DLT: one
40 mg/m^2, 21-day cycle, as of February 2019
  number of DLT: One
DL4 (20 mg/m^2)
  possible treatment related SAE: Grade 3 cardiac failure congestion
DL 4, 21-day cycle, as of February 2019
  SAE related to study drug: congestive heart failure
DL5 (30 mg/m^2)
  possible treatment related SAE: Grade 2 pyrexia
DL 5, 30 mg/m^2, 21-day cycle, as of February 2019
  SAE related to study drug: pyrexia
DL 5A
  ALT or bilirubin elevation: no elevation of ALT or bilirubin
  time for AST elevation to return to Grade 1: ≤ 13 days
  time for AST elevation to return to Grade 2: ≤ 7 days
DL 5A, alkaline phosphatase
  finding accompanying AST elevation: Grade 1 alkaline phosphatase elevation
DL 5A, cycle 1, day 8
  dose limiting toxicity: Grade 3 AST
DL6
  bilirubin elevation: no elevation of bilirubin
  time for ALT elevation to resolve to Grade 1: ≤ 8 days
  time for AST elevation to return to Grade 1: ≤ 21 days
DL6, ALT
  finding accompanying AST elevation: Grade 2 ALT elevation
DL6, alkaline phosphatase
  finding accompanying AST elevation: Grade 1 alkaline phosphatase elevation
DL6, cycle 1, day 8
  dose limiting toxicity: Grade 3 AST
TRAE, N = 37, May 10, 2019
  Aspartate aminotransferase (AST) increased Grade 1, patients: 3
  Aspartate aminotransferase (AST) increased Grade 1, percent of patients: (8) %
  Aspartate aminotransferase (AST) increased Grade 2, patients: 2
  Aspartate aminotransferase (AST) increased Grade 2, percent of patients: (5) %
  Aspartate aminotransferase (AST) increased Grade 3, patients: 4
  Aspartate aminotransferase (AST) increased Grade 3, percent of patients: 11%
  Aspartate aminotransferase (AST) increased Total, patients: 9
  Aspartate aminotransferase (AST) increased Total, percent of patients: (24) %
  Blood alkaline phosphatase increased Grade 1, patients: 6
  Blood alkaline phosphatase increased Grade 1, percent of patients: (16) %
  Blood alkaline phosphatase increased Grade 2, patients: 0
  Blood alkaline phosphatase increased Grade 3, patients: 0
  Blood alkaline phosphatase increased Total, patients: 6
  Blood alkaline phosphatase increased Total, percent of patients: (16) %
  Decreased appetite Grade 1, patients: 1
  Decreased appetite Grade 1, percent of patients: (3) %
  Decreased appetite Grade 2, patients: 6
  Decreased appetite Grade 2, percent of patients: (16) %
  Decreased appetite Grade 3, patients: 0
  Decreased appetite Total, patients: 7
  Decreased appetite Total, percent of patients: (19) %
  Fatigue Grade 1, patients: 4
  Fatigue Grade 1, percent of patients: (11) %
  Fatigue Grade 2, patients: 7
  Fatigue Grade 2, percent of patients: (19) %
  Fatigue Grade 3, patients: 0
  Fatigue Total, patients: 11
  Fatigue Total, percent of patients: (30) %
  Gamma-glutamyltransferase (GGT) increased Grade 1, patients: 3
  Gamma-glutamyltransferase (GGT) increased Grade 1, percent of patients: (8) %
  Gamma-glutamyltransferase (GGT) increased Grade 2, patients: 1
  Gamma-glutamyltransferase (GGT) increased Grade 2, percent of patients: (3) %
  Gamma-glutamyltransferase (GGT) increased Grade 3, patients: 0
  Gamma-glutamyltransferase (GGT) increased Total, patients: 4
  Gamma-glutamyltransferase (GGT) increased Total, percent of patients: (11) %
  Headache Grade 1, patients: 5
  Headache Grade 1, percent of patients: (14) %
  Headache Grade 2, patients: 5
  Headache Grade 2, percent of patients: (14) %
  Headache Grade 3, patients: 0
  Headache Total, patients: 10
  Headache Total, percent of patients: (27) %
  Myalgia Grade 1, patients: 3
  Myalgia Grade 1, percent of patients: (8) %
  Myalgia Grade 2, patients: 1
  Myalgia Grade 2, percent of patients: (3) %
  Myalgia Grade 3, patients: 0
  Myalgia Total, patients: 4
  Myalgia Total, percent of patients: (11) %
  Nausea Grade 1, patients: 12
  Nausea Grade 1, percent of patients: (32) %
  Nausea Grade 2, patients: 2
  Nausea Grade 2, percent of patients: (5) %
  Nausea Grade 3, patients: 0
  Nausea Total, patients: 14
  Nausea Total, percent of patients: (38) %
  Pyrexia Grade 1, patients: 3
  Pyrexia Grade 1, percent of patients: (8) %
  Pyrexia Grade 2, patients: 1
  Pyrexia Grade 2, percent of patients: (3) %
  Pyrexia Grade 3, patients: 0
  Pyrexia Total, patients: 4
  Pyrexia Total, percent of patients: (10) %
  Vomiting Grade 1, patients: 4
  Vomiting Grade 1, percent of patients: (11) %
  Vomiting Grade 2, patients: 1
  Vomiting Grade 2, percent of patients: (3) %
  Vomiting Grade 3, patients: 0
  Vomiting Total, patients: 5
  Vomiting Total, percent of patients: (14) %
As of February 2019
  grade of treatment-related adverse events (TRAEs): Grade 1 or 2
  most common TRAEs: anemia, arthralgias, fatigue, vomiting, anorexia, AST increase, diarrhea, dyspnea (unrelated or unlikely related), hypoalbuminema (unrelated or unlikely related), hypoxia (unrelated), headache, nausea, proteinuria and vomiting
  number of SAEs related to study drug: Two
As of May 10, 2019
  Grade 4 or 5 TRAE: no Grade 4 or 5 TRAE
  grade of adverse events: most adverse events being Grade 1 or 2
  number of SAEs unrelated or unlikely related to treatment: Seventeen
  number of possible treatment related SAEs: Two
  patients with SAEs unrelated or unlikely related to treatment: 11
  tolerability: well tolerated
  toxicities often associated with microtubule-targeting agents or ADCs (neutropenia, ocular toxicities, peripheral neuropathy): Low rate
At DL 5A (30 mg/m^2) and DL 6 (40 mg/m^2)
  number of dose limiting toxicities: Two
conclusions
  MTD / RP2D: Neither MTD nor RP2D has been identified
Maximum doses administered (40 mg/m^2)
  tolerability: well tolerated
Up to the 30 mg/m^2 or 36 mg/m^2 or 43 mg/m^2 dose level
  tolerability: well-tolerated
